Changes are numbered by the printed parent chain.
Key:
Activin AB [1] = target: T1, Activin AB (human, UniProt P08476 311-426; P09529 293-407); experiment: SPR (Biacore), mAb captured on anti-Fc, Activin AB injected, 37 C
T1 construct: Heterodimer of one betaA and one betaB subunit; bought (R&D Systems #1006-AB-005 / #1066-AB)
T1 chain 1: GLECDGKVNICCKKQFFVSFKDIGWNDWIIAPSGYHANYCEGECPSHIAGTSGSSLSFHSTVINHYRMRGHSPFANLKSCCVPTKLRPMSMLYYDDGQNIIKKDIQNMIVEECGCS
T1 chain 2: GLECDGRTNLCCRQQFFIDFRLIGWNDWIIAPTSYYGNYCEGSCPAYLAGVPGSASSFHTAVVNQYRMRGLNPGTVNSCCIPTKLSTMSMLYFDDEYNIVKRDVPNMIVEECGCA
Description: (§1) Antibody-antigen association was monitored for 240 seconds while dissociation in buffer was monitored for 600 seconds. Kinetic association and dissociation rate constants were determined by processing and fitting the data using Scrubber software version 2.0c. Binding equilibrium dissociation constants (KD) and dissociative half-lives (t_{1/2}) were then calculated from the kinetic rate constants as: KD (M)=kd/kₐ and t_{1/2} (min)=[ln 2/(60*kd)]. (NB=no binding observed under the conditions used; NT=not tested).

Activin AC [2] = target: T2, Activin AC (human, UniProt P55103 237-352); experiment: cell-based or functional assay
T2 sequence 1: T1 chain 1
T2 sequence 2: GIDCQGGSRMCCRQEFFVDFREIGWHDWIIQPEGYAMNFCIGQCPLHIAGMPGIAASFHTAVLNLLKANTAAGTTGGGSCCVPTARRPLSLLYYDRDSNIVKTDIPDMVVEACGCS

Activin A [3] = target: T3, Activin A (human, UniProt P08476 311-426); experiment: cell-based or functional assay
T3 sequence: T1 chain 1

Activin AB [4] = target: T1, Activin AB; experiment: cell-based or functional assay
Activin AB [5] = target: T1, Activin AB; experiment: SPR (Biacore), mAb captured on anti-Fc, Activin AB injected, 25 C
Description: as §1

Activin AC [6] = target: T2, Activin AC; experiment: SPR (Biacore), mAb captured on anti-Fc, Activin AC injected, 25 C
Description: as §1

Activin AC [7] = target: T2, Activin AC; experiment: SPR (Biacore), mAb captured on anti-Fc, Activin AC injected, 37 C
Description: as §1

Activin A [8] = target: T4, Activin A (human, UniProt P08476 311-426); experiment: SPR, captured mAb, 25C
T4 construct: Homodimer of two βA subunits; bought from R&D Systems (#338-AC); also called inhibin-βA dimer; human Activin A
T4 sequence: T1 chain 1
Description: as §1

Activin A [9] = target: T4, Activin A; experiment: SPR, captured mAb, 37C
Description: as §1

Activin A [10] = target: T4, Activin A; experiment: SPR, captured mAb, 25C; no dissociation observed, kd fixed
Description: as §1

Activin A [11] = target: T4, Activin A; experiment: SPR, captured mAb, 37C; no dissociation observed, kd fixed
Description: as §1

B1: H4H10468P2 (antibody, human IgG4, V domains shown)
VH: QVQLQESGPGLVKPSETLSLTCTVSGGSFSSHFWSWIRQPPGKGLEWIGYIYYSGGTHYNPSLESRVTISVDTSKNQFSLKLNSVTAADTAVYYCARARSGITFGGLIVPGSFDIWGQGTMVTVSS
VL: not shown
- 50 nM Ag Bound (RU) (Activin AB [1]): 34.5 RU
- Kd (Activin AB [1]): 0.88 nM
- koff (Activin AB [1]): 0.00443 s⁻¹
- kon (Activin AB [1]): 5.03e+06 M⁻¹ s⁻¹
- t1/2 (Activin AB [1]): 2.6 min
- IC50 [M], inhibition of 4 nM Activin AC in A204/CAGAx12-Luc Smad2/3-luciferase bioassay (Activin AC [2]): 3.4e-09 M
- IC50 [M], inhibition of 100 pM Activin A in A204/CAGAx12-Luc Smad2/3-luciferase bioassay (Activin A [3]): 3.9e-11 M
- IC50 [M], inhibition of 30 pM Activin AB in A204/CAGAx12-Luc Smad2/3-luciferase bioassay (Activin AB [4]): 2.3e-09 M
- 50 nM Ag Bound (RU) (Activin AB [5]): 34.7 RU
- Kd (Activin AB [5]): 0.556 nM
- koff (Activin AB [5]): 0.00209 s⁻¹
- kon (Activin AB [5]): 3.76e+06 M⁻¹ s⁻¹
- t1/2 (Activin AB [5]): 5.5 min
- 50 nM Ag Bound (RU) (Activin AC [6]): 17.2 RU
- Kd (Activin AC [6]): 7.41 nM
- koff (Activin AC [6]): 0.00592 s⁻¹
- kon (Activin AC [6]): 798000 M⁻¹ s⁻¹
- t1/2 (Activin AC [6]): 2 min
- 50 nM Ag Bound (RU) (Activin AC [7]): 10.7 RU
- Kd (Activin AC [7]): 17.3 nM
- koff (Activin AC [7]): 0.0124 s⁻¹
- kon (Activin AC [7]): 719000 M⁻¹ s⁻¹
- t1/2 (Activin AC [7]): 0.9 min

B2: H4H10447P2 (antibody, human IgG4, V domains shown)
VH: B1 VH with T23S, Y52H, H58N, E64K, N83T, V92D, R99I, L107M, I115V, Q118E
VL: not shown
- IC50 [M], inhibition of 100 pM Activin A in A204/CAGAx12-Luc Smad2/3-luciferase bioassay (Activin A [3]): 7.8e-11 M

B3: H4H10448P2 (antibody, human IgG4, V domains shown)
VH: B1 VH with S28T, Y52F, S54T, H58N, Y59H, E64K, V71I, N83T, L107V
VL: not shown
- IC50 [M], inhibition of 100 pM Activin A in A204/CAGAx12-Luc Smad2/3-luciferase bioassay (Activin A [3]): 4.6e-11 M

B4: H4H10438P2 (antibody, human IgG4, V domains shown)
VH: EVQLVESGGGLVQPGRSLRLSCAASGFTFDDNAMHWVRQPPGKGLEWVSGISWNSGSIGYADSVKGRFTISRDNAKNSLYLQMNSLRAEDTALYYCAKDINDILTGYPLFDYWGQGTLVTVSS
VL: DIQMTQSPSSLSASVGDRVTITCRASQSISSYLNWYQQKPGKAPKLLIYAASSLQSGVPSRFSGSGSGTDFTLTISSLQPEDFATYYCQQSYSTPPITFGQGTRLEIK
- IC50 [M], inhibition of 100 pM Activin A in A204/CAGAx12-Luc Smad2/3-luciferase bioassay (Activin A [3]): 2.6e-10 M

B5: H4H10426P (antibody, human IgG4, V domains shown)
VH: EVQLVESGGNLVQSGRSLRLSCTASGFAFDDFAMHWVRQVPGKGLEWVSGISWNSDTIGYADSVKGRFTISRDNAQNSLFLQMDSLRAEDTALYYCVKDMVRGLIGYYYYGMDVWGQGTTVTVSS
VL: EIVLTQSPAILSLSPGERAILSCRASQSIYTYLSWYQQTPGRAPRLLIYETSSRATGIPARFIGSGSGTDFTLTISSLEPEDFAFYYCQHRSDWPPTFGQGTKLEIK
- IC50 [M], inhibition of 100 pM Activin A in A204/CAGAx12-Luc Smad2/3-luciferase bioassay (Activin A [3]): 2.3e-10 M

B6: H2aM10965N (antibody, mouse IgG2a, V domains shown)
VH: RVQLVQSGSEVKKPGASVKVSCRASGYIFTSYDINWVRQATGQGLEWMGWMNPNNGNTAYTQKFQGRVTMTRNTSISTAYMELSSLRSEDTAVYYCARKGLLWFGKLLGYGMDVWGQGTTVTVSS
VL: not shown
- IC50 [M], inhibition of 100 pM Activin A in A204/CAGAx12-Luc Smad2/3-luciferase bioassay (Activin A [3]): 3.5e-09 M

B7: H2aM10965N (antibody, mouse IgG2a, V domains shown)
VH: B6 VH
VL: not shown
- Activin A-20 nM (RU) (Activin A [8]): 76 RU
- Kd (Activin A [8]): 0.745 nM
- koff (Activin A [8]): 0.0011 s⁻¹
- kon (Activin A [8]): 1.48e+06 M⁻¹ s⁻¹
- t1/2 (Activin A [8]): 10 min
- Activin A-20 nM (RU) (Activin A [9]): 80 RU
- Kd (Activin A [9]): 1.77 nM
- koff (Activin A [9]): 0.00415 s⁻¹
- kon (Activin A [9]): 2.35e+06 M⁻¹ s⁻¹
- t1/2 (Activin A [9]): 3 min

B8: H4H10452P2 (antibody, human IgG4, V domains shown)
VH: QVQLQESGPGLVKPSETLSLTCTVSGGSFSSHFWNWIRQSPGRGLEWIGYIYYSGGTNYNPSFKSRVTMSVDTSKNQFSLKLSSVTAADTAVFYCARARSGITFGGVLVPGSFDIWGQGTMVTVSS
VL: not shown
- IC50 [M], inhibition of 100 pM Activin A in A204/CAGAx12-Luc Smad2/3-luciferase bioassay (Activin A [3]): 5.8e-11 M

B9: H4H10437P2 (antibody, human IgG4, V domains shown)
VH: EVQLVESGGGLVQPGRSLRLSCAASGFTFDDYAMHWVRQAPGKGLEWVSGISWNSGSIGYADSVKGRFTISRDNAKNSLYLQMNSLRAEDTALYYCAKDIMGNWDYFYGMDVWGQGTTVTVSS
VL: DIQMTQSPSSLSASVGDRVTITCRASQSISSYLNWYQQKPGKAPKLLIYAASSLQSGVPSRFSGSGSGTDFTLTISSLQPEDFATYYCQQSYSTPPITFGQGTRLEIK
- IC50 [M], inhibition of 100 pM Activin A in A204/CAGAx12-Luc Smad2/3-luciferase bioassay (Activin A [3]): 2.9e-10 M

B10: H4H10423P (antibody, human IgG4, V domains shown)
VH: QVQLQQSGPGLLKPSQTLSLTCAISGDSVSSNSAAWSWIRQSPSRGLEWLGRTYYRANWFNDYALSVKSRITINPVTSTNHFSLQLHSVTPEDTAVYYCAREGALGYYFDSWGQGTLVTVSS
VL: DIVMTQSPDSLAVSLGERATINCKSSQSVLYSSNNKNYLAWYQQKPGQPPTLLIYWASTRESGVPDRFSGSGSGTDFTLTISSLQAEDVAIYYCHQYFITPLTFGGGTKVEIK
- 50 nM Ag Bound (RU) (Activin AB [1]): 21.7 RU
- Kd (Activin AB [1]): 24.2 nM
- koff (Activin AB [1]): 0.0213 s⁻¹
- kon (Activin AB [1]): 880000 M⁻¹ s⁻¹
- t1/2 (Activin AB [1]): 0.5 min
- IC50 [M], inhibition of 100 pM Activin A in A204/CAGAx12-Luc Smad2/3-luciferase bioassay (Activin A [3]): 2e-10 M
- 50 nM Ag Bound (RU) (Activin AB [5]): 14.7 RU
- Kd (Activin AB [5]): 33.1 nM
- koff (Activin AB [5]): 0.0203 s⁻¹
- kon (Activin AB [5]): 613000 M⁻¹ s⁻¹
- t1/2 (Activin AB [5]): 0.6 min
- 50 nM Ag Bound (RU) (Activin AC [6]): -0.8 RU
- 50 nM Ag Bound (RU) (Activin AC [7]): 0 RU

B11: H4H10432P2 (antibody, human IgG4, V domains shown)
VH: EVQLVESGGGLVQPGRSLTLSCAVSGFTFDDHAMHWVRQAPGKGLEWVSGISWNSVSIGYADSVKGRFTISRDNAKTSLYLQMNSLRVDDTALYYCVQDLNDILTGYPLFDFWGQGTLVTVSS
VL: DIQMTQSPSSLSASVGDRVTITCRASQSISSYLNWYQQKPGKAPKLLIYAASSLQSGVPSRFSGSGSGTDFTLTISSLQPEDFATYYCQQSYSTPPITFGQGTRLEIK
- 50 nM Ag Bound (RU) (Activin AB [1]): 44.4 RU
- Kd (Activin AB [1]): 1.1 nM
- koff (Activin AB [1]): 0.00592 s⁻¹
- kon (Activin AB [1]): 5.4e+06 M⁻¹ s⁻¹
- t1/2 (Activin AB [1]): 2 min
- IC50 [M], inhibition of 4 nM Activin AC in A204/CAGAx12-Luc Smad2/3-luciferase bioassay (Activin AC [2]): 2.8e-09 M
- IC50 [M], inhibition of 100 pM Activin A in A204/CAGAx12-Luc Smad2/3-luciferase bioassay (Activin A [3]): 1.1e-10 M
- IC50 [M], inhibition of 30 pM Activin AB in A204/CAGAx12-Luc Smad2/3-luciferase bioassay (Activin AB [4]): 8e-10 M
- 50 nM Ag Bound (RU) (Activin AB [5]): 38.3 RU
- Kd (Activin AB [5]): 0.568 nM
- koff (Activin AB [5]): 0.00227 s⁻¹
- kon (Activin AB [5]): 4e+06 M⁻¹ s⁻¹
- t1/2 (Activin AB [5]): 5.1 min
- 50 nM Ag Bound (RU) (Activin AC [6]): 34.9 RU
- Kd (Activin AC [6]): 2.98 nM
- koff (Activin AC [6]): 0.00187 s⁻¹
- kon (Activin AC [6]): 629000 M⁻¹ s⁻¹
- t1/2 (Activin AC [6]): 6.2 min
- 50 nM Ag Bound (RU) (Activin AC [7]): 34.6 RU
- Kd (Activin AC [7]): 12.5 nM
- koff (Activin AC [7]): 0.00902 s⁻¹
- kon (Activin AC [7]): 722000 M⁻¹ s⁻¹
- t1/2 (Activin AC [7]): 1.3 min

B12: H4H10424P (antibody, human IgG4, V domains shown)
VH: QVQLVESGGGVVQPGRSLRLSCAASGFTFSSYGMHWVRQAPGKGLEWVAVIWYDGSNKYNADSVKGRFTISRDNSKNTVYLQMNSLRAEDTAVYYCARARNYDILTGYYNLGMDVWGQGTTVTVSS
VL: DIQMTQSPSSLSASVGDRVTITCRASQGIRNDLGWYQQKPGKAPKRLIYAASSLQSGVPSRFSGSGSGTEFTLTISSLQPEDFATYYCLQHNSYPYTFGQGTKLEIK
- IC50 [M], inhibition of 100 pM Activin A in A204/CAGAx12-Luc Smad2/3-luciferase bioassay (Activin A [3]): 7.6e-10 M

B13: H4H10445P2 (antibody, human IgG4, V domains shown)
VH: QVQLQESGPGLVKPSETLSLICSVSGGSFSSHFWSWIRQPPGKGLEWIGYVLYSGGTNYNPSLKSRVTISVDTSKNQFFLKLSSVTAADTADYYCARAISGITFGGIIVPGSFDIWGQGTMVTVSS
VL: not shown
- IC50 [M], inhibition of 100 pM Activin A in A204/CAGAx12-Luc Smad2/3-luciferase bioassay (Activin A [3]): 5.3e-11 M

B14: H4H10445P2 (antibody, human IgG4, V domains shown)
VH: B13 VH
VL: not shown
- koff (Activin A [10]): ≤ 5e-05 s⁻¹
- koff (Activin A [11]): ≤ 5e-05 s⁻¹
- Activin A-20 nM (RU) (Activin A [8]): 43 RU
- Kd (Activin A [8]): ≤ 0.0208 nM
- kon (Activin A [8]): 2.4e+06 M⁻¹ s⁻¹
- t1/2 (Activin A [8]): ≥ 231 min
- Activin A-20 nM (RU) (Activin A [9]): 36 RU
- Kd (Activin A [9]): ≤ 0.0115 nM
- kon (Activin A [9]): 4.33e+06 M⁻¹ s⁻¹
- t1/2 (Activin A [9]): ≥ 231 min
